In assay [1] the target is T1, recombinant human E1 activating enzyme UBA1 (human, UniProt P22314 1-1058, limits assumed).
T1 construct: also called UBE1
T1 sequence: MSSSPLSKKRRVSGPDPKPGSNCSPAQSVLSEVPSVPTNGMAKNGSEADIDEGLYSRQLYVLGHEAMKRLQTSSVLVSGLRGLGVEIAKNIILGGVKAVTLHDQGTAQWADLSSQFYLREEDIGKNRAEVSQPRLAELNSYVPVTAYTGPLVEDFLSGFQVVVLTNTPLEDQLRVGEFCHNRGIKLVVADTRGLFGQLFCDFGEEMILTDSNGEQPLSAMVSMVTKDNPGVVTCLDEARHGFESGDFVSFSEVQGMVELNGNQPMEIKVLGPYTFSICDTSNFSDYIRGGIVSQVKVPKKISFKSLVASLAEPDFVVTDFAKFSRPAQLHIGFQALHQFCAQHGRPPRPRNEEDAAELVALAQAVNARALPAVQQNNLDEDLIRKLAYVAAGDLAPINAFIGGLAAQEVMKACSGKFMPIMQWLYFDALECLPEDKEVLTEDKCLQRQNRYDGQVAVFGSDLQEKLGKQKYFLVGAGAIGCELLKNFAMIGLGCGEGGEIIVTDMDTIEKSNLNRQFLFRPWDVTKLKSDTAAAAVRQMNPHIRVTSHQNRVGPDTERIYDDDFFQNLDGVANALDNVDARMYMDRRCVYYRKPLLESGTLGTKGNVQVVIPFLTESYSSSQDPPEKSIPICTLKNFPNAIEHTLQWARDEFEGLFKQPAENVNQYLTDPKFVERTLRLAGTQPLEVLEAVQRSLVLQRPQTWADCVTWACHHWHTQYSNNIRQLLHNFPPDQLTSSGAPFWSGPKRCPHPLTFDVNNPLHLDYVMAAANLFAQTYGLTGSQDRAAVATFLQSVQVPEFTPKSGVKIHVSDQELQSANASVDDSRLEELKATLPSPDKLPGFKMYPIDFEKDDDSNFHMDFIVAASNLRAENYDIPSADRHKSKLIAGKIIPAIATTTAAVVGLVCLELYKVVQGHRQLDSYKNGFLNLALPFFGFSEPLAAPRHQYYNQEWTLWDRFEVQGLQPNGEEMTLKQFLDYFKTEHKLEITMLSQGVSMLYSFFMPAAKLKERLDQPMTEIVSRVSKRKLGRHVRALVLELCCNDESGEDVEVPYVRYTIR
Put plainly: fluorescence polarization, without and with ubiquitin and ATP. From the text: In vitro Binding Assays: To assess the binding and affinity of ligands to acceptor proteins, a fluorescence polarization assay (FPA) can be used, for example. The FPA technique measures the molecular orientation and mobility using polarized light and fluorescent tracer.

Assay [2] deals with T2, His-tagged UBA1 captured on Ni-NTA agarose beads (human, UniProt P22314 1-1058, limits assumed).
T2 construct: also called His-UBA1; His-UBE1; not shown: His tag
T2 sequence: T1 sequence
Put plainly: fluorescence microscopy of Ni-NTA agarose beads carrying His-UBA1; 10 µM FITC-labeled peptide. As for the experimental part: Fluorescence Microscopy: His-tagged UBA1 (25 μg) was incubated with Ni-NTA agarose beads (100 μl) (Invitrogen™ R90110) in PBS for 30 min. […] Beads were plated in 386-well plate format (10 μl/well) (Corning 384-well High Content Imaging Glass Bottom Microplate) and imaged with an Olympus wide-field epifluorescence microscope, a 63× LCPlanFL NA 0.7 objective, and a CoolSNAP DYNO camera.

In the next assay the target is T3, His-tagged p53 (UniProt P04637 1-393, limits assumed).
T3 construct: Control protein captured on Ni-NTA agarose beads; also called His-p53; unrelated protein control; not shown: His tag
T3 sequence (P04637 whole entry): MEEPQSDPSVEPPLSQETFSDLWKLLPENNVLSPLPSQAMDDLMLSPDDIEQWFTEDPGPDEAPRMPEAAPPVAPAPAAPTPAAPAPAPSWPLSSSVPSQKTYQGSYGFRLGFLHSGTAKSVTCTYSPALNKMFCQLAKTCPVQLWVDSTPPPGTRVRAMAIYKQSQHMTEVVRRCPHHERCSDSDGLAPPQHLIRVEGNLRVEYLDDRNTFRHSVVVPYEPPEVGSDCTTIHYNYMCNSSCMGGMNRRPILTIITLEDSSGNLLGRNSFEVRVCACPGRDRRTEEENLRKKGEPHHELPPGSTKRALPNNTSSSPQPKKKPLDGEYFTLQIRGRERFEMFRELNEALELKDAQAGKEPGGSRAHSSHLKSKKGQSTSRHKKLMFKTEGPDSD
Put plainly: fluorescence microscopy of Ni-NTA agarose beads carrying His-p53, incubated with FITC-labeled peptide.

The target in assay [3] is T1, recombinant human E1 activating enzyme …. Put plainly: streptavidin-biotin pull-down, silver-stained protein gel. As for the experimental part:
(§1) 30 μL of pre-equilibrated streptavidin agarose beads were then added and incubated for an additional 1.5 hours at 4° C. The beads were pelleted by centrifugation and washed three times with NP-40 buffer (20 mM HEPES, pH 7.4, 50 mM NaCl, 5 mM DTT, 0.5% [v/v] NP-40) before eluting the protein sample from the beads by heating at 70° C. for 10 min in 3×SDS loading buffer. Samples were subjected to electrophoresis and silver staining (Pierce 24612). […] 30 μL of pre-equilibrated streptavidin agarose beads (ThermoFisher 20357) were then added and incubated for an additional 1.5 hours at 4° C. The beads were pelleted by centrifugation and washed three times with NP-40 buffer (20 mM HEPES, pH 7.4, 50 mM NaCl, 5 mM DTT, 0.5% [v/v] NP-40) before eluting the protein sample from the beads by heating at 70° C. for 10 min in 3×SDS loading buffer. Proteins were separated by SDS-PAGE gel electrophoresis and detected by western blot against UBE1 (Abcam ab34711). […] Conjugation of ubiquitin to E2 by E1 is monitored by conversion of free E2 (17 kDa) to E2˜ubiquitin conjugate (26 kDa). Quantitation of percent inhibition was calculated from densitometry of silver stain images.

Assay [4] addresses T4, native UBA1 in HeLa cell lysate (human, UniProt P22314 2-1058, limits assumed).
T4 construct: Endogenous protein in HeLa cell lysate or S100 fraction; also called UBE1
T4 sequence: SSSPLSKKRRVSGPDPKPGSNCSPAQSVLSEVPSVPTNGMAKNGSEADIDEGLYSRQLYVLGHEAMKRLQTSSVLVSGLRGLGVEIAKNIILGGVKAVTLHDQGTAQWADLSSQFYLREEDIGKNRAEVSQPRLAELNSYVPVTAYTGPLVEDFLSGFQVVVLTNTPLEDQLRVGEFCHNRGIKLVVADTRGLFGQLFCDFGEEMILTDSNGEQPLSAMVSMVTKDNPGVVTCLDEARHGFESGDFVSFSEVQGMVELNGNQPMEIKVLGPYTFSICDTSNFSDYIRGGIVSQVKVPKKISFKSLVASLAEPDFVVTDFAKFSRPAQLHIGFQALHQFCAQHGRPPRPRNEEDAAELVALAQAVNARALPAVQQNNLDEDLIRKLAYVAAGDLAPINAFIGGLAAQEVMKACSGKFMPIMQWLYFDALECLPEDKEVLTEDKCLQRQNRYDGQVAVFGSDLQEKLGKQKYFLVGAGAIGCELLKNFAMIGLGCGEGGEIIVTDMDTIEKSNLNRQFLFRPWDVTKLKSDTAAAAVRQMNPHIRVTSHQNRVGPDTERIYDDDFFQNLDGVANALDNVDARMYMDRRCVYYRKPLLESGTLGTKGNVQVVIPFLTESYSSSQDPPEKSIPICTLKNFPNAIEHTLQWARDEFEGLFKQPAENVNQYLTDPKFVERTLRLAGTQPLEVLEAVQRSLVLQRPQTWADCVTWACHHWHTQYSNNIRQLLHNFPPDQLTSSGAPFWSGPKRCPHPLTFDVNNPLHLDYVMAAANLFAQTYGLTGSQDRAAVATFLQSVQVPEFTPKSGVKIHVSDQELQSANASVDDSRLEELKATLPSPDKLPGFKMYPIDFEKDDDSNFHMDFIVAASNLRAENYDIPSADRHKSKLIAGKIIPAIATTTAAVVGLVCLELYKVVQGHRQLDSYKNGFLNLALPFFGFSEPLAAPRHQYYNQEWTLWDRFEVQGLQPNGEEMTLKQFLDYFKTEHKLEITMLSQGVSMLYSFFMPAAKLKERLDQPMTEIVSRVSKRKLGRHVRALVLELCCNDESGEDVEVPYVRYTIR
Put plainly: streptavidin-biotin pull-down from HeLa cell lysate, western blot. On the procedure: as §1
Background: A western blot detects proteins with antibodies after separation by electrophoresis.

Bridge positions count the residues as written; N and C are the ends. Square brackets hold non-standard residues; d marks the D form. Primed or numbered codes have the meaning given here. Ends that are not written are not given here. R8 = C=CCCCCCC[C@@](C)(N)C(=O)O; S5 = C=CCCC[C@](C)(N)C(=O)O; FITC′ = not defined here; Nle = CCCC[C@H](N)C(=O)O

B1: FITC-SAH-UBE2A (FITC conjugated to SEQ ID NO: 132) (peptide)
peptide: [Nle]STP[R8]RRRL[Nle]R[S5]FKRLQ-{FITC′}
modifications: staple 5-12
notes: also called FITC-labeled SAH-UBE2A-11; FITC-labeled peptide
Take B1: the figures for the binding result (in assay [1]; in assay [2]; with His-tagged p53) were “binds”, “binds” and “no binding (tested: 10 µM)”, respectively.

B2: C-terminally biotinylated SAH-UBE2A (peptide)
peptide: Ac-[Nle]STP[R8]RRRL[Nle]R[S5]FKRLQ-biotin
modifications: staple 5-12
notes: also called biotinylated peptide; not shown: C-terminal biotin handle
On to B2, for which the binding result in assay [3] and in assay [4] was “binds” each time.

The values are drawn from US20220169688A1 (Dana-Farber, published 2022).
